The record followed here is patent US20220048967A1 (published 2022).

One assay concerns the target T1, human GIP receptor (human, UniProt P48546 22-466).
T1 sequence (looked up): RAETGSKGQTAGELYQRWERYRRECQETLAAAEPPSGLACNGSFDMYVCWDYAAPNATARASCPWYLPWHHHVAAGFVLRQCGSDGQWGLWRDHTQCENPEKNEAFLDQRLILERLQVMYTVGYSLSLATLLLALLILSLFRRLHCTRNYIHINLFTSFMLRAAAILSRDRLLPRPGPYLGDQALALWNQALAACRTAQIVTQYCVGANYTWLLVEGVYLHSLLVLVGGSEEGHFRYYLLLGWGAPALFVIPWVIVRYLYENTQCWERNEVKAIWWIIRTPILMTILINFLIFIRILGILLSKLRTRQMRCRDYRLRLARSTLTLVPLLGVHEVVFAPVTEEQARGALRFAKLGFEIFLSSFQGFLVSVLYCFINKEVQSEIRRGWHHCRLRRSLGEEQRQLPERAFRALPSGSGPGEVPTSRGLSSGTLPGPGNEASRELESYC
Kind of assay: cell-based or functional assay.

The target in another assay is human GLP-1 receptor (human, UniProt P43220 24-463). Kind of assay: cell-based or functional assay.

Numbered stars: 1 amine (or outer) side, 2 acyl side, 3 side chain; on linkers, the order of the positions; unused ones are H or OH. Square brackets hold non-standard residues; d marks the D form. Side chains are listed from the residue outwards. Ends that are not written are not given here. * marks the point of attachment. C20 diacid = O=C(O)CCCCCCCCCCCCCCCCCCC(=O)*; αMePhe(2-F) = C[C@](N)(Cc1ccccc1F)C(=O)O; γGlu = O=C(O)[C@H](CCC(=O)[*:2])N[*:1]; Desaminohistidyl = O=C(CCc1c[nH]cn1)*; αMeF = C[C@](N)(Cc1ccccc1)C(=O)O; AEEA = NCCOCCOCC(=O)O; Aib = CC(C)(N)C(=O)O

B1: Example 102 (peptide)
peptide: Y[Aib]EGT[αMeF]TSDYSI[Aib]LDEK([AEEA-AEEA-γGlu-C20 diacid])AQ[Aib]AFIEYLIEGG-NH2
modifications: N-terminus assumed
SMILES: CC[C@H](C)[C@H](NC(=O)[C@H](CC(C)C)NC(=O)[C@H](Cc1ccc(O)cc1)NC(=O)[C@H](CCC(=O)O)NC(=O)[C@@H](NC(=O)[C@H](Cc1ccccc1)NC(=O)[C@H](C)NC(=O)C(C)(C)NC(=O)[C@H](CCC(N)=O)NC(=O)[C@H](C)NC(=O)[C@H](CCCCNC(=O)COCCOCCNC(=O)COCCOCCNC(=O)CC[C@H](NC(=O)CCCCCCCCCCCCCCCCCCC(=O)O)C(=O)O)NC(=O)[C@H](CCC(=O)O)NC(=O)[C@H](CC(=O)O)NC(=O)[C@H](CC(C)C)NC(=O)C(C)(C)NC(=O)[C@@H](NC(=O)[C@H](CO)NC(=O)[C@H](Cc1ccc(O)cc1)NC(=O)[C@H](CC(=O)O)NC(=O)[C@H](CO)NC(=O)[C@@H](NC(=O)[C@](C)(Cc1ccccc1)NC(=O)[C@@H](NC(=O)CNC(=O)[C@H](CCC(=O)O)NC(=O)C(C)(C)NC(=O)[C@@H](N)Cc1ccc(O)cc1)[C@@H](C)O)[C@@H](C)O)[C@@H](C)CC)[C@@H](C)CC)C(=O)N[C@@H](CCC(=O)O)C(=O)NCC(=O)NCC(N)=O
Regarding B1, in the assay with human GIP receptor, the “hGIPR cAMP EC50 ratio” value was found to be 0.983 and the “hGIPR cAMP Rel EC50” value was 0.178 nM. Besides, in the assay with human GLP-1 receptor, the “hGLP1R cAMP EC50 ratio” value turned out to be 0.913 and the “hGLP1R cAMP Rel EC50” value was 0.0628 nM.

B2: Example 107 (peptide)
peptide: XXEGTFTSDYSILLDKKAQXAFIEYLIEGGPSSGAPPPS
modifications: DesTyr1; Aib2; K17((2-[2-(2-Amino-ethoxy)-ethoxy]-acetyl)2-(γ-Glu)-CO-(CH2)18-CO2H); Aib20; C-terminal NH2
B2: in the assay with human GIP receptor, the “hGIPR cAMP EC50 ratio” value came out at 0.747 and the “hGIPR cAMP Rel EC50” value stood at 0.241 nM. In the assay with human GLP-1 receptor, the “hGLP1R cAMP EC50 ratio” value amounted to 1.1 and the “hGLP1R cAMP Rel EC50” value was determined as 0.0539 nM.

B3: Example 112 (peptide)
peptide: YXEGTFTSDYSILLDKKAQXAFIEYLIEGGPSSGAPPPS
modifications: Aib2; K17((2-[2-(2-Amino-ethoxy)-ethoxy]-acetyl)-(ϵK)-(γ-Glu)-CO-(CH2)18-CO2H); Aib20; C-terminal NH2
Consider B3, for which the “hGIPR cAMP Rel EC50” value in the assay with human GIP receptor came to 0.124 nM. In addition, the “hGLP1R cAMP Rel EC50” value with human GLP-1 receptor was found to be 0.16 nM.

B4: Example 110 (peptide)
peptide: YXEGTFTSDYSILLDKKAQXAFIEYLIEGGPSSGAPPPS
modifications: Aib2; K17((2-[2-(2-Amino-ethoxy)-ethoxy]-acetyl)-(γ-Glu)-(Trx)-CO-(CH2)18-CO2H); Aib20; C-terminal NH2
As to B4, the “hGIPR cAMP Rel EC50” value with human GIP receptor was 0.218 nM. Moreover, the “hGLP1R cAMP Rel EC50” value in the assay with human GLP-1 receptor came to 0.179 nM.

B5: Example 95 (peptide)
peptide: YXEGTXTSDYSILLDKIAQXAFIEYLIKGG
modifications: Aib2; αMeF6; Aib20; K28((2-[2-(2-Amino-ethoxy)-ethoxy]-acetyl)2-(γ-Glu)-CO-(CH2)18-CO2H); C-terminal NH2
With B5, in the assay with human GIP receptor, the “hGIPR cAMP EC50 ratio” value stood at 0.145 and the “hGIPR cAMP Rel EC50” value worked out at 1.17 nM. In addition, in the assay with human GLP-1 receptor, the “hGLP1R cAMP EC50 ratio” value came to 0.0576 and the “hGLP1R cAMP Rel EC50” value amounted to 1.01 nM.

B6: Example 93 (peptide)
peptide: Y[Aib]EGT[αMeF]TSDYSILK([AEEA-AEEA-γGlu-C20 diacid])DKIAQ[Aib]AFIEYLIEGG-NH2
modifications: N-terminus assumed
SMILES: CC[C@H](C)[C@H](NC(=O)[C@H](CCCCN)NC(=O)[C@H](CC(=O)O)NC(=O)[C@H](CCCCNC(=O)COCCOCCNC(=O)COCCOCCNC(=O)CC[C@H](NC(=O)CCCCCCCCCCCCCCCCCCC(=O)O)C(=O)O)NC(=O)[C@H](CC(C)C)NC(=O)[C@@H](NC(=O)[C@H](CO)NC(=O)[C@H](Cc1ccc(O)cc1)NC(=O)[C@H](CC(=O)O)NC(=O)[C@H](CO)NC(=O)[C@@H](NC(=O)[C@](C)(Cc1ccccc1)NC(=O)[C@@H](NC(=O)CNC(=O)[C@H](CCC(=O)O)NC(=O)C(C)(C)NC(=O)[C@@H](N)Cc1ccc(O)cc1)[C@@H](C)O)[C@@H](C)O)[C@@H](C)CC)C(=O)N[C@@H](C)C(=O)N[C@@H](CCC(N)=O)C(=O)NC(C)(C)C(=O)N[C@@H](C)C(=O)N[C@@H](Cc1ccccc1)C(=O)N[C@H](C(=O)N[C@@H](CCC(=O)O)C(=O)N[C@@H](Cc1ccc(O)cc1)C(=O)N[C@@H](CC(C)C)C(=O)N[C@H](C(=O)N[C@@H](CCC(=O)O)C(=O)NCC(=O)NCC(N)=O)[C@@H](C)CC)[C@@H](C)CC
Consider B6, for which, in the assay with human GIP receptor, the “hGIPR cAMP EC50 ratio” value worked out at 0.956 and the “hGIPR cAMP Rel EC50” value came out at 0.185 nM. Also, in the assay with human GLP-1 receptor, the “hGLP1R cAMP EC50 ratio” value was 0.498 and the “hGLP1R cAMP Rel EC50” value was 0.115 nM.

B7: Example 98 (peptide)
peptide: YXEGTXTSDYSILLDKKAQXAFIEYLIEGG
modifications: Aib2; αMeF6; K17((2-[2-(2-Amino-ethoxy)-ethoxy]-acetyl)2-(γ-Glu)-CO-(CH2)18-CO2H); Aib20; C-terminal NH2
With B7, in the assay with human GIP receptor, the “hGIPR cAMP EC50 ratio” value turned out to be 2.43 and the “hGIPR cAMP Rel EC50” value was found to be 0.0718 nM. In the assay with human GLP-1 receptor, the “hGLP1R cAMP EC50 ratio” value came to 0.384 and the “hGLP1R cAMP Rel EC50” value was determined as 0.157 nM.

B8: Example 101 (peptide)
peptide: Y[Aib]EGT[αMePhe(2-F)]TSDYSI[Aib]LDEK([AEEA-AEEA-γGlu-C20 diacid])AQ[Aib]AFIEYLIEGG-NH2
modifications: N-terminus assumed
SMILES: CC[C@H](C)[C@H](NC(=O)[C@H](CC(C)C)NC(=O)[C@H](Cc1ccc(O)cc1)NC(=O)[C@H](CCC(=O)O)NC(=O)[C@@H](NC(=O)[C@H](Cc1ccccc1)NC(=O)[C@H](C)NC(=O)C(C)(C)NC(=O)[C@H](CCC(N)=O)NC(=O)[C@H](C)NC(=O)[C@H](CCCCNC(=O)COCCOCCNC(=O)COCCOCCNC(=O)CC[C@H](NC(=O)CCCCCCCCCCCCCCCCCCC(=O)O)C(=O)O)NC(=O)[C@H](CCC(=O)O)NC(=O)[C@H](CC(=O)O)NC(=O)[C@H](CC(C)C)NC(=O)C(C)(C)NC(=O)[C@@H](NC(=O)[C@H](CO)NC(=O)[C@H](Cc1ccc(O)cc1)NC(=O)[C@H](CC(=O)O)NC(=O)[C@H](CO)NC(=O)[C@@H](NC(=O)[C@](C)(Cc1ccccc1F)NC(=O)[C@@H](NC(=O)CNC(=O)[C@H](CCC(=O)O)NC(=O)C(C)(C)NC(=O)[C@@H](N)Cc1ccc(O)cc1)[C@@H](C)O)[C@@H](C)O)[C@@H](C)CC)[C@@H](C)CC)C(=O)N[C@@H](CCC(=O)O)C(=O)NCC(=O)NCC(N)=O
Turning to B8, in the assay with human GIP receptor, the “hGIPR cAMP EC50 ratio” value stood at 2.07 and the “hGIPR cAMP Rel EC50” value came to 0.0704 nM. Also, in the assay with human GLP-1 receptor, the “hGLP1R cAMP EC50 ratio” value was determined as 1.06 and the “hGLP1R cAMP Rel EC50” value came out at 0.0579 nM.

B9: Example 6 (peptide)
peptide: Y[Aib]EGTFTSDYSILLDKK([AEEA-AEEA-γGlu-C20 diacid])AQ[Aib]AFIEYLLEGGPSSGAPPPS-NH2
modifications: N-terminus assumed
SMILES: CC[C@H](C)[C@H](NC(=O)[C@H](Cc1ccccc1)NC(=O)[C@H](C)NC(=O)C(C)(C)NC(=O)[C@H](CCC(N)=O)NC(=O)[C@H](C)NC(=O)[C@H](CCCCNC(=O)COCCOCCNC(=O)COCCOCCNC(=O)CC[C@H](NC(=O)CCCCCCCCCCCCCCCCCCC(=O)O)C(=O)O)NC(=O)[C@H](CCCCN)NC(=O)[C@H](CC(=O)O)NC(=O)[C@H](CC(C)C)NC(=O)[C@H](CC(C)C)NC(=O)[C@@H](NC(=O)[C@H](CO)NC(=O)[C@H](Cc1ccc(O)cc1)NC(=O)[C@H](CC(=O)O)NC(=O)[C@H](CO)NC(=O)[C@@H](NC(=O)[C@H](Cc1ccccc1)NC(=O)[C@@H](NC(=O)CNC(=O)[C@H](CCC(=O)O)NC(=O)C(C)(C)NC(=O)[C@@H](N)Cc1ccc(O)cc1)[C@@H](C)O)[C@@H](C)O)[C@@H](C)CC)C(=O)N[C@@H](CCC(=O)O)C(=O)N[C@@H](Cc1ccc(O)cc1)C(=O)N[C@@H](CC(C)C)C(=O)N[C@@H](CC(C)C)C(=O)N[C@@H](CCC(=O)O)C(=O)NCC(=O)NCC(=O)N1CCC[C@H]1C(=O)N[C@@H](CO)C(=O)N[C@@H](CO)C(=O)NCC(=O)N[C@@H](C)C(=O)N1CCC[C@H]1C(=O)N1CCC[C@H]1C(=O)N1CCC[C@H]1C(=O)N[C@@H](CO)C(N)=O
As to B9, in the assay with human GIP receptor, the “hGIPR cAMP EC50 ratio” value amounted to 2.09 and the “hGIPR cAMP Rel EC50” value turned out to be 0.0899 nM. Further, in the assay with human GLP-1 receptor, the “hGLP1R cAMP EC50 ratio” value amounted to 0.185 and the “hGLP1R cAMP Rel EC50” value is 0.374 nM.

Regarding [Desaminohistidyl][Aib]EGTFTSDYSILLDKK([AEEA-AEEA-γGlu-C20 diacid])AQ[Aib]AFIEYLIEGGPSSGAPPPS-NH2 (also: ψ[NHCO] bond between DesHis1 and Aib2) [Example 105], in the assay with human GIP receptor, the “hGIPR cAMP EC50 ratio” value came out at 0.101 and the “hGIPR cAMP Rel EC50” value was 1.85 nM. Also, in the assay with human GLP-1 receptor, the “hGLP1R cAMP EC50 ratio” value amounted to 1.51 and the “hGLP1R cAMP Rel EC50” value turned out to be 0.0401 nM.

B10: Example 94 (peptide)
peptide: YXEGTXTSDYSILLDKIAQXKFIEYLIEGG
modifications: Aib2; αMeF6; Aib20; K21((2-[2-(2-Amino-ethoxy)-ethoxy]-acetyl)2-(γ-Glu)-CO-(CH2)18-CO2H); C-terminal NH2
For B10, in the assay with human GIP receptor, the “hGIPR cAMP EC50 ratio” value was 0.434 and the “hGIPR cAMP Rel EC50” value was found to be 0.425 nM. Also, in the assay with human GLP-1 receptor, the “hGLP1R cAMP EC50 ratio” value was 0.196 and the “hGLP1R cAMP Rel EC50” value was determined as 0.338 nM.

Turning to [Desaminohistidyl][Aib]EGTFTSDYSILLDKK([AEEA-AEEA-γGlu-C20 diacid])AQ[Aib]AFIEYLIEGGPSSGAPPPS-NH2 [Example 106], in the assay with human GIP receptor, the “hGIPR cAMP EC50 ratio” value stood at 0.0302 and the “hGIPR cAMP Rel EC50” value came to 6.54 nM. In the assay with human GLP-1 receptor, the “hGLP1R cAMP EC50 ratio” value was 1.42 and the “hGLP1R cAMP Rel EC50” value was 0.0413 nM.
